From US20230355708A1 (priority 2020, published 2023)
Entries after “also recorded” stand apart in the source; their conditions may differ.

Legend:
[1] = test system: SARS-CoV-2 pseudoviruses
[2] = test system: Env Neg pseudovirus
[3] = test system: HIV-1 pseudovirus
[4] = test system: SARS-CoV-1 pseudoviruses
[5] = test system: SARS-CoV-2 pseudoviruses; assay type: cell-based
[6] = test system: SARS-CoV-1 pseudoviruses; assay type: cell-based
[7] = molecular target: SARS-CoV-2 spike S2 subunit (Severe acute respiratory syndrome coronavirus 2, UniProt P0DTC2)
[8] = test system: SARS-CoV-1 pseudoviruses; assay type: cell-based; remark: listed apart in the source
[9] = molecular target: SARS-CoV-2 spike S1 subunit (Severe acute respiratory syndrome coronavirus 2, UniProt P0DTC2)
[10] = molecular target: gp120 (Human immunodeficiency virus type 1 group M subtype B, UniProt P35961); conditions: SPR
[11] = test system: SARS-CoV-2 pseudoviruses; assay type: cell-based; remark: listed apart in the source
[12] = molecular target: receptor binding domain (RBD) (Severe acute respiratory syndrome coronavirus 2, UniProt P0DTC2)
[13] = test system: HIV-1 pseudovirus; assay type: cell-based

| Molecule | virolysis of SARS-CoV-2 pseudoviruses [1] | virolysis of Env Neg pseudovirus [2] | virolysis of HIV-1 [3] | virolysis of SARS-CoV-1 pseudoviruses [4] | irreversible inactivation of SARS-CoV-2 [5] | irreversible inactivation of SARS-CoV-1 [6] | stability of lectin-S2 complexes [7] | stoichiometry of binding, S2 versus S1 [7] | inhibition of SARS-CoV-1 pseudovirus infection [8] | binding of S1 to lectin [9] | binding to gp120 [10] | inhibition of SARS-CoV-2 pseudovirus infection [11] | binding to receptor binding domain (RBD) [12] | inhibition of HIV-1 infection [13] | binding to S2 subunit [7] | binding to S1 subunit [9] |
| --- | --- | --- | --- | --- | --- | --- | --- | --- | --- | --- | --- | --- | --- | --- | --- | --- |
| CVN: lectin cyanovirin-N, SEQ ID NO:1 (protein) LGKFSQTCYNSAIQGSVLTSTCERTNGGYNTSSIDLNSVIENVDGSLKWQPSNFIETCRNTQLAGSSELAAECKTRAQQFVSTKINLDDHIANIDGTLKYE | more potent than CVN-DLI; also recorded: capable of causing cell-free virolysis | no virolytic effect | no virolytic effect | no virolytic effect | irreversible inactivation | irreversible inactivation | very stable | higher to the S2 subunit | inhibition | Relatively lower binding | occurred | inhibited infection at nanomolar potencies | no binding | inhibition |  |  |
| P51G-CVN: mutant CVN wherein Pro 51 is mutated to Gly, SEQ ID NO:3 (protein) LGKFSQTCYNSAIQGSVLTSTCERTNGGYNTSSIDLNSVIENVDGSLKWQGSNFIETCRNTQLAGSSELAAECKTRAQQFVSTKINLDDHIANIDGTLKYE | reduced virolysis |  |  |  |  |  |  |  |  |  |  | decreased inhibition of infection |  |  | reduced affinity as compared to CVN | reduced affinity as compared to CVN |
